Test results published in IntAct's records for PubMed 19194460.

B1: Decapping nuclease din1 (Schizosaccharomyces pombe (strain ATCC 38366 / 972)), O13836 (parent)
chain: MLREFSFYDVPPAHVPPVSEPLEIACYSLSRDRELLLDDSKLSYYYPPPLFSDLNTGFPNRFHPPKSDPDPISIVKDVLMTKGIQMNSSFLTWRGLITKIMCAPLDPRNHWETYLVMDPTSGIIMMEERTRSETSYANQDRMCYWGYKFEAISTLPEIWDACSRDQIEQRDNQDVVPDEQYCSIVKINIGKSKLILAGEVDCIWDKKPCSAKESDVHSDDGTIEEDASNAENPNLHYVELKTSKKYPLENYGMRKKLLKYWAQSFLLGIGRIIIGFRDDNGILIEMKELFTHQIPKMLRPYFKPNDWTPNRLLVVLEHALEWIKQTVKQHPPSTEFTLSYTGGSKLVLRQII
partner: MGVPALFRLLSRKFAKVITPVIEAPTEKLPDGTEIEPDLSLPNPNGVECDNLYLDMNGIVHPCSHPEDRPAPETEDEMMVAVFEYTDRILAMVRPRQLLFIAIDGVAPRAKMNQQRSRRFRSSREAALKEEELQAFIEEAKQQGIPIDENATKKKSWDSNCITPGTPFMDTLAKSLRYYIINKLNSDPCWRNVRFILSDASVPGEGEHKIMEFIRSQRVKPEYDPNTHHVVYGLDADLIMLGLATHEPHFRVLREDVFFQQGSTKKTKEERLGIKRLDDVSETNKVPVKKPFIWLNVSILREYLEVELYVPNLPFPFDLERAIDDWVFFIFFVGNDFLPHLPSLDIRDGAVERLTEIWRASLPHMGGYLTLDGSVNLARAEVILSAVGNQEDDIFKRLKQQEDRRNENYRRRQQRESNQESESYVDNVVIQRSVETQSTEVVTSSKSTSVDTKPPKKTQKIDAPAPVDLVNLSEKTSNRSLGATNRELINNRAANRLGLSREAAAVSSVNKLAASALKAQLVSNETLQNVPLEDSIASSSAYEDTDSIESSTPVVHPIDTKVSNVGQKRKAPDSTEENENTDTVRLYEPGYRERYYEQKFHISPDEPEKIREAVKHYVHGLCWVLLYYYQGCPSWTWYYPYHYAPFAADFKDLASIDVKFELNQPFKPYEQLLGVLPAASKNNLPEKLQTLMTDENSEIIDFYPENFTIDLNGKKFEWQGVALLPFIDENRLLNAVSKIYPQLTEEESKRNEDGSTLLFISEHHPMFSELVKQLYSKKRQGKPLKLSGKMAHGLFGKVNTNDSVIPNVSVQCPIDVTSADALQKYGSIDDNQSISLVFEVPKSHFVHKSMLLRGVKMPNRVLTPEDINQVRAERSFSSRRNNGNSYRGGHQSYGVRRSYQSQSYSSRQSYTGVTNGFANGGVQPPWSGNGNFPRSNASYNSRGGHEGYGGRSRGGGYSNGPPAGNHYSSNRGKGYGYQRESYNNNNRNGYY

Variants of: B1
Conditions: with xrn2_schpo dhp1, P40848

| effect of a mutation on the interaction | Variant |
| --- | --- |
| decreasing interaction | MLREFSFYDVPPAHVPPVSEPLEIACYSLSRDRELLLDDSKLSYYYPPPLFSDLNTGFPNRFHPPKSDPDPISIVKDVLMTKGIQMNSSFLTWRGLITKIMCAPLDPRNHWETYLVMDPTSGIIMMEERTRSETSYANQDRMCYWGYKFEAISTLPEIADACSRDQIEQRDNQDVVPDEQYCSIVKINIGKSKLILAGEVDCIWDKKPCSAKESDVHSDDGTIEEDASNAENPNLHYVELKTSKKYPLENYGMRKKLLKYWAQSFLLGIGRIIIGFRDDNGILIEMKELFTHQIPKMLRPYFKPNDWTPNRLLVVLEHALEWIKQTVKQHPPSTEFTLSYTGGSKLVLRQII [W159A] |
| decreasing interaction | MLREFSFYDVPPAHVPPVSEPLEIACYSLSRDRELLLDDSKLSYYYPPPLFSDLNTGFPNRFHPPKSDPDPISIVKDVLMTKGIQMNSSFLTWRGLITKIMCAPLDPRNHWETYLVMDPTSGIIMMEERTRSETSYANQDRMCYWGYKFEAISTLPEIWDACSRDQIEQRDNQDVVPDEQYCSIVKINIGKSKLILAGEVDCIADKKPCSAKESDVHSDDGTIEEDASNAENPNLHYVELKTSKKYPLENYGMRKKLLKYWAQSFLLGIGRIIIGFRDDNGILIEMKELFTHQIPKMLRPYFKPNDWTPNRLLVVLEHALEWIKQTVKQHPPSTEFTLSYTGGSKLVLRQII [W204A] |
| decreasing interaction | MLREFSFYDVPPAHVPPVSEPLEIACYSLSRDRELLLDDSKLSYYYPPPLFSDLNTGFPNRFHPPKSDPDPISIVKDVLMTKGIQMNSSFLTWRGLITKIMCAPLDPRNHWETYLVMDPTSGIIMMEERTRSETSYANQDRMCYWGYKFEAISTLPEIWDACSADQIEQRDNQDVVPDEQYCSIVKINIGKSKLILAGEVDCIWDKKPCSAKESDVHSDDGTIEEDASNAENPNLHYVELKTSKKYPLENYGMRKKLLKYWAQSFLLGIGRIIIGFRDDNGILIEMKELFTHQIPKMLRPYFKPNDWTPNRLLVVLEHALEWIKQTVKQHPPSTEFTLSYTGGSKLVLRQII [R164A] |
